Columns and labels:
NTSR1 = NTSR1 (UniProt P30989); assay: cell-based or functional assay
[1] = target: p12026-BSA-conjugate (human); assay: ELISA, plate coated with p12026-BSA-conjugate 4 µg/ml; serum dilution 1:100
[2] = target: p12026-BSA-conjugate (human); assay: ELISA, plate coated with p12026-BSA-conjugate 4 µg/ml; serum dilution 1:200
[3] = target: p12026-BSA-conjugate (human); assay: ELISA, plate coated with p12026-BSA-conjugate 4 µg/ml; serum dilution 1:400
[4] = target: p12026-BSA-conjugate (human); assay: ELISA, plate coated with p12026-BSA-conjugate 4 µg/ml; serum dilution 1:800
[5] = target: p12026-BSA-conjugate (human); assay: ELISA, plate coated with p12026-BSA-conjugate 4 µg/ml; serum dilution 1:1600
[6] = target: p12026-BSA-conjugate (human); assay: ELISA, plate coated with p12026-BSA-conjugate 4 µg/ml; serum dilution 1:3200
[7] = target: p12026-BSA-conjugate (human); assay: ELISA, plate coated with p12026-BSA-conjugate 4 µg/ml; serum dilution 1:6400
[8] = target: p12026-BSA-conjugate (human); assay: ELISA, plate coated with p12026-BSA-conjugate 4 µg/ml; serum dilution 1:12800

p12026-BSA-conjugate (human), sequence (P02769 25-607 limits assumed): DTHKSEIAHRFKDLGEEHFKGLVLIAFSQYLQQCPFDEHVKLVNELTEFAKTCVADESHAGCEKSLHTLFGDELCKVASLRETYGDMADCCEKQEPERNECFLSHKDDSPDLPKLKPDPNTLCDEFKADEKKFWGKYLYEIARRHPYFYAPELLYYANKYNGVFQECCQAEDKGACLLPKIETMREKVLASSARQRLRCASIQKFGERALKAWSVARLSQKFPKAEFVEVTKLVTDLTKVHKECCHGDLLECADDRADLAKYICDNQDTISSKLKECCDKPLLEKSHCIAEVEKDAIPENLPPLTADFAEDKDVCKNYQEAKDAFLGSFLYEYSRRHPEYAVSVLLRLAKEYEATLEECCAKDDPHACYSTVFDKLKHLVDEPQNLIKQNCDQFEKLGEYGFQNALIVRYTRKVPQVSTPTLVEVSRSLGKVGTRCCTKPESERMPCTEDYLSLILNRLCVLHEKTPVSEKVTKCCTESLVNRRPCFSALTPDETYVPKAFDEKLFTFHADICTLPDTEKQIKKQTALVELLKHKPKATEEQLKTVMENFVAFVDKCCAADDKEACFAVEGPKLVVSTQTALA
NTSR1, sequence (P30989 whole entry): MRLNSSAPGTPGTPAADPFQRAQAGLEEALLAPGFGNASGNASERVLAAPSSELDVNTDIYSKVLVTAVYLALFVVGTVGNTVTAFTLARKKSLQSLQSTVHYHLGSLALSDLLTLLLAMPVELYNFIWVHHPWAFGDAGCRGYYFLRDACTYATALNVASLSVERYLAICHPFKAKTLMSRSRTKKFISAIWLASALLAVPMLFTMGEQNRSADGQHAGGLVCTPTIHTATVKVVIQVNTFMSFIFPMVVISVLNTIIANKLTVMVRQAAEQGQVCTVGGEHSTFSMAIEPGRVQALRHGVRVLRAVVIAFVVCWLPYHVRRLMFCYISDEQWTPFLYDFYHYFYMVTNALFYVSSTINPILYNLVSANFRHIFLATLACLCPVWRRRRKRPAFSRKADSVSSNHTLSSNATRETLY

Row | reduction of cell growth of CHO NTSR1 overexpressing cells (NTSR1) [%] | OD405nm [1] [OD405nm] | OD405nm [2] [OD405nm] | OD405nm [3] [OD405nm] | OD405nm [4] [OD405nm] | OD405nm [5] [OD405nm] | OD405nm [6] [OD405nm] | OD405nm [7] [OD405nm] | OD405nm [8] [OD405nm] | Substance
1 | 60 |  |  |  |  |  |  |  |  | NTS released or expressed by cancer cells (from UniProt P30990 24-163) (ligand)
2 |  | 0.032 | 0.016 | 0.016 | 0.012 | 0.008 | 0.01 | 0.009 | 0.004 | normal serum (antibody)

Reference: patent US20170218057A1
